Experimental data from patent publication US20190309074A1, “DEGLYCOSYLATED ANTIBODY SPECIFICALLY BINDING TO CLEC14A AND USES THEREOF” (WOORI TECHNOLOGIES CORPORATION, priority 2016, published 2019).

Assays:
HUVEC tube formation = HUVEC tube formation assay; assay type: cell-based, human; conditions: branches as % of MOCK
Description: Genetic mutation introduced during antibody engineering induces unpredicted defects, resulting in deterioration in antibody functions. In order to isolate antibodies for suppressing clec14a-mediated angiogenesis, tube formation and endothelial cell migration assay using human umbilical vein endothelial cells (HUVECs) were conducted in the presence or absence of clone 1 IgG and deglyco C1-C4 IgGs. Among the four types of deglyco IgGs, deglyco C1 IgG was selected as a candidate antibody. […] In addition, it can be seen that deglyco C1 IgG includes desired alterations (N32R/N33C/S34G) in the amino acid sequence in light chain CDR1.
In order to compare in vitro angiogenesis suppression effect between deglyco C1 IgG and bevacizumab, tube formation and migration assay were conducted in the presence or absence of parent antibody IgG, deglyco C1 IgG or bevacizumab as a positive control group.
In order to investigate in vitro effects of deglyco C1 IgG on VEGF-dependent angiogenesis, HUVECs were treated with VEGF in the presence or absence of deglyco C1 IgG, and then HUVEC tube formation assay was conducted. 150 μl of Matrigel was added to a 48-well plate and incubated at 37° C. for 30 minutes. HUVEC (10^5) cultured in EGM-2 were collected, seeded on the Matrigel-coated plate and incubated at 37° C. for 18 hours in the presence or absence of clone 1 IgG, parent antibody IgG, deglycosylated clec14a-CTLD IgG or bevacizumab. HUVECs cultured in VEGF-containing EBM (endothelial cell basal medium) were seeded to the Matrigel-coated plate and incubated at 37° C. for 18 hours in the presence or absence of deglyco C1 IgG (20 μg ml^−1).

[1] = test system: binding of clec14a-CTLD to HUVECs; experiment: cell ELISA: hclec14a-CTLD-Fc-HRP binding to HUVECs; assay type: cell-based, human; conditions: increasing antibody concentration
Description: In order to analyze action mechanisms of deglyco C1 IgG at a molecule-scale, specifically, in angiogenesis, HUVECs were treated with hclec14a-CTLD-Fc-HRP (HRP-labeled hclec14a-CTLD-Fc) in the absence or presence of an increasing concentration of parent antibody IgG or deglyco C1 IgG.

HUVECs = experiment: HUVEC morphology by immunocytochemistry; assay type: cell-based, human
Description: In addition, the morphology of HUVEC was evaluated in the presence or absence of deglyco C1 IgG using immunocytochemistry. […] In order to evaluate effects of deglyco C1 IgG on the activity of endothelial cells, which is an initial inflammatory response to a harmful stimulus, HUVECs were treated with deglyco C1 IgG, and expression of an endothelial cell activity marker including VCAM-1 (vascular cell adhesion molecule-1) and ICAM-1 (intercellular cell adhesion molecule-1) was measured to monitor HUVEC activity. Human tumor necrosis factor-alpha (hTNFα) was used as a positive control group for endothelial cell activity.
In order to investigate correlations between tumor angiogenesis and clec14a, first, xenograft tumor models including SNU182 human liver cell or CFPAC-1 human pancreatic cancer cell carcinomas were established, and immunohistochemistry was conducted on commercially available antibodies of clec14a and CD31, which is a well-known endothelial marker protein. Immunohistochemistry was conducted as follows. HUVECs (5×10^4) grown on a 0.1% (w/v) gelatin-coated glass cover slip were incubated in the presence or absence of deglyco C1 IgG for 24 hours at 37° C. […]

[2] = test system: phosphorylation of VEGFR, Akt and ERK; experiment: immunoblot of VEGF-dependent signaling in HUVECs; assay type: cell-based, human; conditions: VEGF-treated HUVECs
From the text: In order to investigate effects of deglyco C1 IgG on VEGF-dependent signaling actions in endothelial cells, VEGF-treated HUVECs were subjected to immunoblot analysis in the presence or absence of deglyco C1 IgG to monitor changes in phosphorylation of VEGFR (VEGF receptor), Akt and ERK (extracellular signal-regulated kinase).

[3] = in vivo toxicity in normal mouse; conditions: intravenous, twice a week
From the text: In order to investigate in vivo toxicity of deglyco C1 IgG, deglyco C1 IgG was intravenously injected into a normal mouse twice a week, and hepatic and renal functions, body weight, and apoptosis conditions of hepatic and renal tissues between control groups and experimental groups were then compared. The hepatic function was investigated by measuring serum concentrations of glutamic-oxaloacetic transaminase (GOT), glutamic pyruvic transaminase (GPT), and total bilirubin (TBIL), and the renal function was investigated by measuring the concentrations of blood urea nitrogen (BUN) and creatinine (CRE). Apoptosis was measured by TUNEL staining.

[4] = test system: VEGF-dependent microvessel formation; experiment: mouse Matrigel plug assay, VEGF-dependent microvessel formation; assay type: in vivo
Description: In order to observe in vivo efficacies of deglyco C1 IgG on VEGF-dependent angiogenesis, a mouse Matrigel model was established, hemoglobin level was measured as a marker of microvessel formation, and inhibitory activities against microvessel formation of deglyco C1 IgG and bevacizumab were compared by a mouse Matrigel plug assay.

CFPAC-1 cells = experiment: tumor cell-derived Matrigel plug angiogenesis assay; assay type: in vivo, mouse; conditions: single dose of 10 mg/kg, 2 weeks, nude mice
Description: (§1) In order to investigate in vivo effects of deglyco C1 IgG on tumor angiogenesis, tumor cell-derived Matrigel plug angiogenesis assay was conducted on thymus-removed nude mice. SNU182- and CFPAC-1 cells and U87 human glioma cells containing Matrigel were transplanted into thymus-removed nude mice in the presence of deglyco C1 IgG and bevacizumab with a single dose of 10 mg/kg or in the absence thereof. 2 weeks later, the Matrigel plug was removed and the total hemoglobulin content of each group was measured with an ELISA reader.

SNU182 cells = experiment: as above; assay type: in vivo, mouse; conditions: single dose of 10 mg/kg, 2 weeks, nude mice
Description: as §1

U87 human glioma cells = experiment: as above; assay type: in vivo, mouse; conditions: single dose of 10 mg/kg, 2 weeks, nude mice
Description: as §1

[5] = test system: HCT116 human colorectal cancer cells; experiment: Matrigel plug angiogenesis assay, CD31 microvessel density; assay type: in vivo; conditions: single dose of 5 mg/kg, 14 days
Description: (§2) Matrigel plug angiogenesis assay was conducted in the presence of deglyco C1 IgG or bevacizumab with a single dose of 5 mg/kg or the absence thereof using HCT116 human colorectal cancer cells and bevacizumab-applied HCT116 human colorectal cancer cells (HCT116 and HCT116/Beva). 14 days later, the Matrigel plug was removed, and immunohistochemistry was conducted on CD31 and microvascular markers. A microvessel density was measured by quantifying CD31 positive per field in an image each obtained by a confocal microscope.

HCT116/Beva cells = experiment: as above; assay type: in vivo; conditions: single dose of 5 mg/kg, 14 days
Description: as §2

B1: deglyco C1 IgG: deglycosylated clone 1 IgG; light chain CDR1 TGSSSNIGRCGVT (SEQ ID NO: 2), N32R/N33C/S34G (antibody, V domains shown)
VH: EVQLVESGGGLVQPGGSLRLSCAVSGFTFSGYDMSWIRQAPGKGLEWVAGIYPDGGNTYYADSVKGRFTISRDDSKNTFYLQMNSLRAEDTAVYYCARGATWWVLGPFDYWGQGTLVTVSS
VL: DIQLTQSPSSLSASVGDRVTITCTGSSSNIGRCGVTWYQQKPGKAPKLLIYADSHRPSGVPSRFSGSGSGTDFTLTISSLQPEDFATYYCGAWDDSLSGYVFGQGTKVEIKR
- inhibitory activity against HUVEC tube formation (HUVEC tube formation): most excellent inhibitory activity
- inhibitory activity against HUVEC tube formation (HUVEC tube formation; listed as Deglyco C1 IgG): significantly suppressed
- suppression of binding of clec14a-CTLD to HUVECs [1]: significantly suppressed
- morphology of HUVECs (HUVECs): did not change the morphology
- VEGF-dependent phosphorylation of VEGFR, Akt and ERK [2]: almost no effect
- apoptosis of hepatic and renal tissues (TUNEL) [3]: apoptosis conditions were observed
- body weight [3]: no significant change in body weight
- hepatic and renal functions (GOT, GPT, TBIL, BUN, CRE) [3]: no significant change
- hemoglobin content (microvessel formation) [4]: significantly reduced a hemoglobin content
- hemoglobin content, CFPAC-1-derived (CFPAC-1 cells): significantly reduced hemoglobin
- hemoglobin content, SNU182-derived (SNU182 cells): significantly reduced hemoglobin
- hemoglobin content, U87-derived (U87 human glioma cells): significantly reduced hemoglobin
- microvessel formation (CD31 positive per field), HCT116 [5]: significantly reduced microvessel formation ability
- microvessel formation (CD31 positive per field), HCT116/Beva (HCT116/Beva cells): significantly suppressed
